# Laboratory results taken from patent US6509447B1, “G protein chimeras and methods of screening compounds” (Glaxo Welcome Inc., priority 1997, dated 2003).
# T1: serotonin 5HT1A receptor (Homo sapiens, UniProt P08908)
# T1 construct: expressed in transfected cells; host or cells: Saccharomyces cerevisiae strains MMY9 and MMY11, plasmid pDT-PGK-5-HT1A
# T1 sequence (P08908 1-422): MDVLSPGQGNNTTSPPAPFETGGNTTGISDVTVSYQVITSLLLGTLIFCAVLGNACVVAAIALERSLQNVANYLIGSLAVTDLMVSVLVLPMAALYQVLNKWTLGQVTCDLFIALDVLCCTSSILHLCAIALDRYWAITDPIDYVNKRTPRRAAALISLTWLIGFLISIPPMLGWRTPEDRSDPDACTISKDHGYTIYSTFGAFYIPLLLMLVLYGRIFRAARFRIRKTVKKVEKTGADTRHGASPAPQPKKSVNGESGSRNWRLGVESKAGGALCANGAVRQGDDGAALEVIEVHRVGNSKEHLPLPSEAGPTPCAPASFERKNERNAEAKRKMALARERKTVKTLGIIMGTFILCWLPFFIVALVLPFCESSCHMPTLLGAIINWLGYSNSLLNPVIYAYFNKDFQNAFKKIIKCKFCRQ
# B1: Gpa1p: endogenous yeast Gα subunit, product of the GPA1 gene (protein, UniProt P08539 2-472, looked up)
# Guanine nucleotide-binding …: GCTVSTQTIGDESDPFLQNKRANDVIEQSLQLEKQRDKNEIKLLLLGAGESGKSTVLKQLKLLHQGGFSHQERLQYAQVIWADAIQSMKILIIQARKLGIQLDCDDPINNKDLFACKRILLKAKALDYINASVAGGSDFLNDYVLKYSERYETRRRVQSTGRAKAAFDEDGNISNVKSDTDRDAETVTQNEDADRNNSSRINLQDICKDLNQEGDDQMFVRKTSREIQGQNRRNLIHEDIAKAIKQLWNNDKGIKQCFARSNEFQLEGSAAYYFDNIEKFASPNYVCTDEDILKGRIKTTGITETEFNIGSSKFKVLDAGGQRSERKKWIHCFEGITAVLFVLAMSEYDQMLFEDERVNRMHESIMLFDTLLNSKWFKDTPFILFLNKIDLFEEKVKSMPIRKYFPDYQGRVGDAEAGLKYFEKIFLSLNKTNKPIYVKRTCATDTQTMKFVLSAVTDLIIQQNLKKIGII
# How the values were obtained:
# serotonin 5HT1A receptor = molecular target: T1, serotonin 5HT1A receptor; experiment: CPRG assay, MMY11 cells expressing 5-HT1A receptor plus Gα subunit; assay type: cell-based; parameters: key: weak activation insufficient to carry out curve-fitting was detected; NC: no coupling was detected
# Experimental: (§1) Assay for combined FUS1-lacZ and FUS1-HIS3 Expression. In vivo assays of reporter gene induction (CPRG assays) were carried out by suspending cells to 0.02 OD600 in 200 μl SC-glucose (2%) lacking tryptophan, uracil and histidine. This medium was supplemented with agonists, and additionally 10 mM 3-aminotriazole and the β-galactosidase (lacZ) substrate chlorophenolred-β-D-galactopyranoside (CPRG; Boehringer) to a concentration of 0.1 mg/ml. To visualise the colour change reaction, the medium was buffered to pH 7 with 0.1 M sodium phosphate. The assay was conducted in a 96-well microtitre plate format. Plates were incubated for 24 hours without agitation, and absorbance at 570 nm was determined using a Victor microtitre plate reader (Wallac). EC50 values (+/−standard error) were estimated by curve-fitting, using the Robosage software package.
# (§2) MMY11 was used in an experiment in which cells were transformed with pairs of plasmids as before, one to express a Gα subunit and the other a receptor expression construct. […] Where pheromone response pathway activation was detected, the agonist concentration required to yield a half-maximal response (EC50+/−standard error; all values in nM except where otherwise indicated) was determined by curve-fitting, and is shown in Table 4A. Where no coupling was detected, this is also indicated (NC).
# [1] = molecular target: T2, purinergic nucleotide P2Y1 receptor (Homo sapiens, UniProt P47900); experiment: CPRG assay, MMY11 cells expressing P2Y1 receptor plus Gα subunit; assay type: cell-based; parameters: key: weak activation insufficient to carry out curve-fitting was detected; NC: no coupling was detected
# T2 construct: expressed in transfected cells; host or cells: Saccharomyces cerevisiae strain MMY11, plasmid pDT-PGK-P2Y1
# Experimental: as §1, §2
# T2 sequence (P47900 whole entry): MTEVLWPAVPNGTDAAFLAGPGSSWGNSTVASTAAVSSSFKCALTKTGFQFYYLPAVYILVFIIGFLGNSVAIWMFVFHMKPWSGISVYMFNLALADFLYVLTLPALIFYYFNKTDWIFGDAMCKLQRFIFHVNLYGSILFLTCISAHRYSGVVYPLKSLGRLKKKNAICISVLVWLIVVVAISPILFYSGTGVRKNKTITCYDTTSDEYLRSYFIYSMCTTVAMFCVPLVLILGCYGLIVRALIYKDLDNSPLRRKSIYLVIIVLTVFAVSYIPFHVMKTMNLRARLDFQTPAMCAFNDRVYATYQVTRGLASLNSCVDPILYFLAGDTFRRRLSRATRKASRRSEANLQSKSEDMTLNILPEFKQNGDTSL
molecule,measurement,setting,value
B1,coupling class where no EC50 could be fitted,serotonin 5HT1A receptor,weak
same,coupling class where no EC50 could be fitted,[1],NC
